The data set “solid-state NMR” concerns the molecule itself. The experiment in a line: solid-state NMR.
Data set [1] deals with the molecule itself. The experiment in a line: urea-driven polymer dissolution.

B1: segmentally labeled mCherry-hnRNPA2-LC D290V (ligated construct, G280C) (domain or fragment, human, UniProt P22626-2 181-341, looked up)
chain: MQEVQSSRSGRGGNFGFGDSRGGGGNFGPGPGSNFRGGSDGYGSGRGFGDGYNGYGGGPGGGNFGGSPGYGGGRGGYGGGGPGYGNQGGGYGGGYDNYGCGNYGSGNYNVFGNYNQQPSNYGPMKSGNFGGSRNMGGPYGGGNYGPGGSGGSGGYGGRSRY
For B1, the binding result in “solid-state NMR” was “binds”.

B2: GFP-hnRNPA2-LC D290V (domain or fragment, human, UniProt P22626-2 181-341, looked up)
chain: MQEVQSSRSGRGGNFGFGDSRGGGGNFGPGPGSNFRGGSDGYGSGRGFGDGYNGYGGGPGGGNFGGSPGYGGGRGGYGGGGPGYGNQGGGYGGGYDNYGGGNYGSGNYNVFGNYNQQPSNYGPMKSGNFGGSRNMGGPYGGGNYGPGGSGGSGGYGGRSRY
As for B2, in data set [1], the binding result is on record as “binds”.
